Key:
[1] = target: human Y2 receptor (human) (UniProt P49146); test: competition binding, displacement of 125I-PYY, COS-7 cells with human Y2
[2] = target: human Y5 receptor (human) (UniProt Q15761); test: competition binding, displacement of 125I-NPY, COS-7 cells with human Y5
[3] = target: human Y4 receptor (human) (UniProt P50391); test: cell-based or functional assay
[4] = target: human Y2 receptor (human) (UniProt P49146); test: cell-based or functional assay
[5] = target: human Y5 receptor (human) (UniProt Q15761); test: cell-based or functional assay
[6] = target: human Y1 receptor (human) (UniProt P25929); test: cell-based or functional assay
UniProt P25929, sequence (P25929 whole entry): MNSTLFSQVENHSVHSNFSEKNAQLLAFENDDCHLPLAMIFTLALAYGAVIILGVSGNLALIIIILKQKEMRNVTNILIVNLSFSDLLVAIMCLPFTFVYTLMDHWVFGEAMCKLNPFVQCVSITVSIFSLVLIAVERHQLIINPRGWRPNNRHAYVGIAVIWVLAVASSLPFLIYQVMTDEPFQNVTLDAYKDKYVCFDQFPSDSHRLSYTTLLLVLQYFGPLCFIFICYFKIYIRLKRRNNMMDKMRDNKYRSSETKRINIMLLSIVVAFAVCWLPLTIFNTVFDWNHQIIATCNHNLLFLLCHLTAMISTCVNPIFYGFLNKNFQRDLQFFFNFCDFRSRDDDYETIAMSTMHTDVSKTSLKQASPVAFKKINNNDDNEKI

[7] = target: human Y4 receptor (human) (UniProt P50391); test: competition binding, displacement of 125I-PP, COS-7 cells with human Y4

UniProt P49146, sequence (P49146 whole entry): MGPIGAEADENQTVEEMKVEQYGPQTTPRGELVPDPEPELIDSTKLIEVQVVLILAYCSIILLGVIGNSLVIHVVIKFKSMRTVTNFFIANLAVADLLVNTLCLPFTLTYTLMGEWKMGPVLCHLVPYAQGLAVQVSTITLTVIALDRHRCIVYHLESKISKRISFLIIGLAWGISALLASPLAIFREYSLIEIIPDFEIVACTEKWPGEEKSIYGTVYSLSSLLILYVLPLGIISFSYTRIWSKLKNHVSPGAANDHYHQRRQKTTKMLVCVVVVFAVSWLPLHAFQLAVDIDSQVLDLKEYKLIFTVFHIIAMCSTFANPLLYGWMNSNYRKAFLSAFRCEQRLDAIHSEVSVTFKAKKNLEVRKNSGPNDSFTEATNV
UniProt Q15761, sequence (Q15761 whole entry): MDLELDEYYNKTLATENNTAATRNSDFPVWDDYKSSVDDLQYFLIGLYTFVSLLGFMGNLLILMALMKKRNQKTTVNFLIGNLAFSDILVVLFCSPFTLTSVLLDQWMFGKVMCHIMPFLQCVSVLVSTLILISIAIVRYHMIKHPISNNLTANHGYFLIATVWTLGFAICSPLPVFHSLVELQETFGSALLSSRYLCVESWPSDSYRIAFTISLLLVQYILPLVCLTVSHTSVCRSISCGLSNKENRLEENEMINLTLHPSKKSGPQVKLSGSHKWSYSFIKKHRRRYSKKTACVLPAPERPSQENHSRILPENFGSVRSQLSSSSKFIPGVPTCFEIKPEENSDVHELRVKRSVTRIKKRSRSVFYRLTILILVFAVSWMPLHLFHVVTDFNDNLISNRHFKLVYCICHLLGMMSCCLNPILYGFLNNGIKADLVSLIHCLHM
UniProt P50391, sequence (P50391 whole entry): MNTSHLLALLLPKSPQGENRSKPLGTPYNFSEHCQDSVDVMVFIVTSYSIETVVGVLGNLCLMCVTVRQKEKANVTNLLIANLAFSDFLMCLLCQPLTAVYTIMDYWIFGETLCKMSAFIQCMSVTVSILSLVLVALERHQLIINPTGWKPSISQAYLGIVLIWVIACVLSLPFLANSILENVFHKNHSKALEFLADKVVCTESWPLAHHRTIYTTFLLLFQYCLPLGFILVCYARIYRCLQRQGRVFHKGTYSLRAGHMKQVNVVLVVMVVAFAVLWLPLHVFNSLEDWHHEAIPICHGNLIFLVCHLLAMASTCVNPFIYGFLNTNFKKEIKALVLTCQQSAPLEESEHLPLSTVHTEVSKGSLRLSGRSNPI

Substance | IC50 [1] | IC50 [2] | EC50, inositol phosphate turnover (potency assay) [3] | EC50, inositol phosphate turnover (potency assay) [4] | EC50, inositol phosphate turnover (potency assay) [5] | EC50, inositol phosphate turnover (potency assay) [6] | IC50 [7]
[Lys4,Gln34]PP (peptide) | 0.21 nM | 0.87 nM | 64 nM | 0.17 nM | 3.8 nM | 38 nM | 6 nM
[Cys2,D-Cys27]PYY (peptide) | – | – | > 1000 nM | – | – | > 1000 nM | –
[Cys2,D-Cys27]PYY2-36 (peptide) | 0.6 nM | 36 nM | > 1000 nM | 1.9 nM | – | > 1000 nM | 300 nM

Source: patent publication EP2272524A2
